US20240343793A1 (TILLOTTS PHARMA, published 2024)
Positions count from the first letter of the chain named. Names and notes keep the numbering of the source.

T1: CD32a(H) (UniProt P12318 36-218)
T1 construct: His-tagged; also called Fcγ receptor CD32a(H)
T1 sequence (looked up): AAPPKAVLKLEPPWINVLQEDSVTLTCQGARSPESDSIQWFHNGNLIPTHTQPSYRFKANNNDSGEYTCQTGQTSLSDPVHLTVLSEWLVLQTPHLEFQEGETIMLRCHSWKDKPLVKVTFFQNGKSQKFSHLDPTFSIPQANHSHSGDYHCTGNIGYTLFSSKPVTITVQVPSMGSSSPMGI

T2: CD32b (UniProt P31994 46-217)
T2 construct: His-tagged; also called Fcγ receptor CD32b
T2 sequence (looked up): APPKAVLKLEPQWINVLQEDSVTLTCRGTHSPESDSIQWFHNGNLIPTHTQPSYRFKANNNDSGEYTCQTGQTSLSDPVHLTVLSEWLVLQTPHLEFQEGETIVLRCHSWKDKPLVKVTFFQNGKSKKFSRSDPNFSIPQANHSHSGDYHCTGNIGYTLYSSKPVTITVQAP

T3: CD32a(R) (UniProt P12318 36-218)
T3 construct: His-tagged; also called Fcγ receptor CD32a(R)
T3 sequence (looked up): T1 sequence (looked up) with H132R

B1: Ab-wt (antibody, human IgG1, kappa)
heavy: not shown
light: DIQMTQSPSSLSASVGDRVTIKCQASQSIFSGLAWYQQKPGKAPKLLIYGASKLASGVPSRFSGSGSGTEFTLTISGLQPADFATYYCQSYYYSSSSSDGSYAFGGGTKLTVLGRTVAAPSVFIFPPSDEQLKSGTASVVCLLNNFYPREAKVQWKVDNALQSGNSQESVTEQDSKDSTYSLSSTLTLSKADYEKHKVYACEVTHQGLSSPVTKSFNRGEC
notes: Human IgG1 anti-TNFα antibody with wild-type Fc; also called parent antibody; wild-type antibody
B2: Ab-REW (antibody, human IgG1, kappa)
heavy: EVQLVESGGGLVQPGGSLRLSCKASGIDFNNYGIGWVRQAPGKGLEWITYIYPGFAITNFANSVKGRFTISSDNSKNTVYLQMNSLRAEDTAVYYCARDPVYATSSGYFDLWGQGTLVTVSSASTKGPSVFPLAPSSKSTSGGTAALGCLVKDYFPEPVTVSWNSGALTSGVHTFPAVLQSSGLYSLSSVVTVPSSSLGTQTYICNVNHKPSNTKVDKKVEPKSCDKTHTCPPCPAPELLGGPSVFLFPPKPKDTLMISRTPEVTCVVVDVSHEDPEVKFNWYVDGVEVHNAKTKPREEQYNSTYRVVSVLTVLHRDWLNGKEYKCKVSNKALPAPIEKTISKAKGQPREPQVYTLPPSREEMTKNQVSLTCLVKGFYPSDIAVEWESNGQPENNYKTTPPVLDSDGSFFLYSKLTVDKSRWQQGNVFSCSVEHEALHWHYTQKSLSLSPGK
light: B1 light
notes: IgG1; also called REW containing variant; Q311R/M428E/N434W variant of Ab-wt
B3: Ab-REW-2FF (antibody, human IgG1, kappa)
heavy: B2 heavy
light: B1 light
modifications: N-glycans at N297 (EU numbering) with greatly reduced fucose (13% fucosylated), made with 2-deoxy-2-fluoro-fucose (2FF) in the culture medium
notes: IgG1; also called non-fucosylated variant of Ab-REW
B4: infliximab (antibody)
chain 1: not shown
chain 2: DILLTQSPAILSVSPGERVSFSCRASQFVGSSIHWYQQRTNGSPRLLIKYASESMSGIPSRFSGSGSGTDFTLSINTVESEDIADYYCQQSHSWPFTFGSGTNLEVKRTVAAPSVFIFPPSDEQLKSGTASVVCLLNNFYPREAKVQWKVDNALQSGNSQESVTEQDSKDSTYSLSSTLTLSKADYEKHKVYACEVTHQGLSSPVTKSFNRGEC

Key:
[1] = target: T4, CD64 (UniProt P12314 16-288, limits assumed); experiment: SPR (Biacore), His-tagged FcγR captured on anti-His chip, antibody as analyte
T4 construct: His-tagged (captured on an anti-His chip); also called Fcγ receptor CD64
Protocol: (§1) Affinity to FcγRs was measured by Biacore. A CM5 chip was prepared using standard amine immobilisation Biacore procedures. Upon insertion of a CM5 chip the system was primed and then normalised with BIA-normalizing solution (Biacore Preventative Maintenance Kit 2). The chip was added to the system with Phosphate Buffered Saline Tween-20 (PBS-T) running buffer; prior to immobilisation the chip surface was primed with three injections of 50 mM NaOH. FcγRs were immobilised on the chip surface using a His-tag capture system. The anti-His tag chip was prepared according to the Biacore kit instructions, with ˜12000 RU's of the antibody deposited on all 4 flow cells. To remove non-covalently bound material from all the chip flow cells, three 30 second 10 mM glycine pH 1.5 washes were performed. The Fcγ receptors were diluted in PBS-T to a range of 0.5-2 μg/mL, with 2.5-5.0 μL injected onto the chip generating capture levels between 60 and 200 RU's. Antibodies were diluted into PBS-T prior to analysis. Single cycle kinetics were used to estimate the steady state affinity. For each single cycle analysis cycle a titration of 5 antibody concentrations were injected over the FcγR ligand and then the dissociation of the complex was measured. The surface was regenerated using the recommended solution, 10 mM glycine pH 1.5 for the anti-His capture surface. A double referencing method was employed in which data from the ligand bound capture surface (fc 2 and 4) were subtracted from the references surfaces where no ligand was captured (fc 1 and 3 respectively). Blank injections of buffer were run for every antibody titration cycle and then subtracted from analyte injection cycles, to correct for small changes in the ligand capture surface. All analysis was performed at 25° C. and the sample rack was incubated at 10° C. during experimental runs. Each experiment was run at least three times.

[2] = target: T1, CD32a(H); experiment: as above
Protocol: as §1

[3] = target: T2, CD32b; experiment: as above
Protocol: as §1

[4] = target: T5, monomeric His-tagged human FcRn (human, UniProt P55899 24-297; P61769 21-119); experiment: SPR (Biacore 3000), antibody amine-coupled, monomeric His-tagged hFcRn injected, pH 6.0; pH 6.0
T5 construct: also called hFcRn
Protocol: (§2) SPR was performed using a Biacore 3000 instrument with CM5 sensor chips coupled with anti-TNFα IgG1 antibodies (˜500 resonance units (RU)) using amine-coupling chemistry as described by the manufacturer. The coupling was performed by injecting 2.0 ug/mL of each protein in 10 mM sodium acetate, pH 4.5, using the amine-coupling kit (GE Healthcare). […] All SPR experiments were conducted at 25° C. with a flow rate of 40 ul/min. Binding data were zero-adjusted, and reference cell value subtracted. The Langmuir 1:1 ligand binding model provided by the BIAevaluation software (version 4.1) was used to determine the binding kinetics.

[5] = target: T6, human TNFα (human, UniProt P01375 77-233); experiment: SPR (Biacore), antibody captured on Protein A, TNFα as analyte, single cycle kinetics, 25 C
T6 construct: also called recombinant TNFα
Protocol: Affinity to TNFα was measured by Biacore. A CM5 chip was prepared using standard amine immobilisation Biacore procedures. Upon insertion of a CM5 chip the system was primed and then normalised with BIA-normalising solution (Biacore Preventative Maintenance Kit 2). The chip was added to the system with PBS-T running buffer; prior to immobilisation the chip surface was primed with three injections of 50 mM NaOH. Protein A was immobilised on the chip surface. For this, the protein was diluted to 5 μg/mL into 10 mM acetate buffer at pH 4.5 and injected so to generate a bound response of ˜1000 RU's in all 4 flow cells. To remove non-covalently bound material from all the chip flow cells, three 15 second 50 mM NaOH washes were performed. On the Protein A chip, antibody was captured in flow cells 2 and 4, with flow cells 1 and 3 used for reference subtraction. The trial antibodies were diluted in PBS-T to 10 nM and 2.5-7.5 uL injected to obtain 120 RU of captured antibody. […] For each single cycle analysis cycle a titration of 5 analyte concentrations were injected over the ligand and then the dissociation of the complex was measured. The surface was regenerated using glycine pH 1.7. A double referencing method was employed in which data from the ligand bound capture surface (fc 2 and 4) were subtracted from the references surfaces where no ligand was captured (fc 1 and 3 respectively). Blank injections of buffer were run every 3-4 cycles and then subtracted from analyte injection cycles, to correct for small changes in the ligand capture surface. Repeat injections of analyte at the start and end of each analytical run were used to check for sample degradation, or changes in the instrument performance. All analysis was performed at 25° C. and the sample rack was incubated at 10° C. during experimental runs. Each experiment was run at least three times. A 1-to-1 binding model was used to fit the resulting kinetic data.

[6] = target: T7, CD16a(V) (UniProt P08637 17-208); experiment: SPR (Biacore), His-tagged FcγR captured on anti-His chip, antibody as analyte
T7 construct: His-tagged; also called Fcγ receptor CD16a(V)
Protocol: as §1

[7] = target: T3, CD32a(R); experiment: as above
Protocol: as §1

[8] = target: T5, monomeric His-tagged human FcRn; experiment: SPR, pH 6.0; KD against that of IFX; pH 6.0; fold change from IFX
Protocol: as §2

[9] = target: T8, CD16a(F) (UniProt P08637 17-208); experiment: SPR (Biacore), His-tagged FcγR captured on anti-His chip, antibody as analyte
T8 construct: His-tagged
Protocol: as §1

[10] = target: T9, CD16b(NA2) (UniProt O75015 17-200, limits assumed); experiment: as above
T9 construct: His-tagged
Protocol: as §1

[11] = target: T5, monomeric His-tagged human FcRn; experiment: SPR, pH 6.0; KD against that of Ab-wt; pH 6.0; fold change from wt
Protocol: as §2

[12] = target: human C1q (human, UniProt P02745 23-245; P02746 28-253; P02747 29-245); experiment: ELISA: antibody titrated onto plate-coated human TNFα, then human C1q at 0.5 µg/mL, detected with rabbit anti-human C1q and HRP anti-rabbit IgG, absorbance 620 nm
Protocol: ELISA was performed using 96-well MaxiSorp plates where the wells were coated with human TNFα diluted to 1 μg/mL in PBS. After incubation O/N at 4° C., the plates were blocked with PBS containing 4% skimmed milk for 1 h and washed four times with PBS containing 0.05% Tween-20 (PBS-T). Then, titrated amounts of the anti-TNFα IgG antibodies were diluted in PBS-T, added and incubated for 1 h at RT. After washing using PBS-T, human C1q (0.5 μg/mL) was diluted in 0.1 M Veronal buffer (0.25 mM CaCl₂ and 0.8 mM MgCl₂ pH 7.2), added to the wells and incubated for 1 h. Subsequently, the wells were washed as above before rabbit anti-human C1q diluted 1:5000 in PBS-T was added to the wells and incubated for 1 h. After washing, an HRP-conjugated anti-rabbit IgG from donkey diluted 1:5000 in PBS-T was added. Subsequently, the wells were washed and 100 μL 3,3′,5,5′-Tetramethylbenzidine substrate was added to each well. The absorbance was measured at 620 nm using a Sunrise spectrophotometer.

[13] = target: T6, human TNFα; experiment: cell-based or functional assay
[14] = target: T7, CD16a(V); experiment: SPR (Biacore), His-tagged FcγR captured; reference not named in the sentence (Ab-wt by Table 5)
Protocol: Affinity to FcγRs was measured by Biacore. A CM5 chip was prepared using standard amine immobilisation Biacore procedures. Upon insertion of a CM5 chip the system was primed and then normalised with BIA-normalizing solution (Biacore Preventative Maintenance Kit 2). The chip was added to the system with Phosphate Buffered Saline Tween-20 (PBS-T) running buffer; prior to immobilisation the chip surface was primed with three injections of 50 mM NaOH. FcγRs were immobilised on the chip surface using a His-tag capture system. The anti-His tag chip was prepared according to the Biacore kit instructions, with ˜12000 RU's of the antibody deposited on all 4 flow cells. To remove non-covalently bound material from all the chip flow cells, three 30 second 10 mM glycine pH 1.5 washes were performed. The Fcγ receptors were diluted in PBS-T to a range of 0.5-2 μg/mL, with 2.5-5.0 μL injected onto the chip generating capture levels between 60 and 200 RU's. Antibodies were diluted into PBS-T prior to analysis. Single cycle kinetics were used to estimate the steady state affinity. For each single cycle analysis cycle a titration of 5 antibody concentrations were injected over the FcγR ligand and then the dissociation of the complex was measured. The surface was regenerated using the recommended solution, 10 mM glycine pH 1.5 for the anti-His capture surface. […]

human C1q, sequence (P02745 23-245, chain 1 of 3): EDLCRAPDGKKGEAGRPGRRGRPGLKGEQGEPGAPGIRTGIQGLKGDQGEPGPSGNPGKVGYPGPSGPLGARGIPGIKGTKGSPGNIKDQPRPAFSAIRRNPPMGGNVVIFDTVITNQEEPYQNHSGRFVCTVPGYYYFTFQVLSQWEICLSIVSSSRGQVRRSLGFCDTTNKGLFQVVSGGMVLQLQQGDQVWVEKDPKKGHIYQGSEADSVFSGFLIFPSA
human C1q, sequence (P02746 28-253, chain 2 of 3): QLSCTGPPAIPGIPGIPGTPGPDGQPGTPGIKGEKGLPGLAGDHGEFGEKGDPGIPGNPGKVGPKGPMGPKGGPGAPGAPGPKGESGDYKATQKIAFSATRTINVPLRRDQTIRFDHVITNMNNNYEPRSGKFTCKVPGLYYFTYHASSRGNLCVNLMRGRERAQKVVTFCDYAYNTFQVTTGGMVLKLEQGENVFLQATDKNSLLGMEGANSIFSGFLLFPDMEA
human C1q, sequence (P02747 29-245, chain 3 of 3): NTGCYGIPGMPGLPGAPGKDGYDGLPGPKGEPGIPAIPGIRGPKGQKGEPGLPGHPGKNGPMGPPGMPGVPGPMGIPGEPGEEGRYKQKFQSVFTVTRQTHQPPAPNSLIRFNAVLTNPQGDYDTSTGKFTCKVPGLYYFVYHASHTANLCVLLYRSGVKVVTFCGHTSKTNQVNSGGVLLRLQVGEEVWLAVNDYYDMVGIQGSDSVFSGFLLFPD
T5 sequence (P55899 24-297 limits assumed, chain 1 of 2): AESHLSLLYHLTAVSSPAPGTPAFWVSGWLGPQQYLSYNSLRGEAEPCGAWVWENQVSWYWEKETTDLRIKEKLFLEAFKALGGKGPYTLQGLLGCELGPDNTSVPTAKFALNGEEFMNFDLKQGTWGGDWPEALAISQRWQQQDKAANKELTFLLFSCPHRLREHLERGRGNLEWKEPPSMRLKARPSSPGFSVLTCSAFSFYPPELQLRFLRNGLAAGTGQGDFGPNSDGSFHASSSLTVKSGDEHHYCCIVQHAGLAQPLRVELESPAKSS
T5 sequence (P61769 21-119 limits assumed, chain 2 of 2): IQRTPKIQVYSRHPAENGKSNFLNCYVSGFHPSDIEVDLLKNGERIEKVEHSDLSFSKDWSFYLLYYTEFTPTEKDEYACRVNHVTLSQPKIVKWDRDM
T6 sequence (P01375 77-233 limits assumed): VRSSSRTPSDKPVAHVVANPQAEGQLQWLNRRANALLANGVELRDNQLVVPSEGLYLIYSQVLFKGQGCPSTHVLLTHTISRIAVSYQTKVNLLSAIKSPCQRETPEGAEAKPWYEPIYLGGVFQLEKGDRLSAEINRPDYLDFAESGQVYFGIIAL
T7 sequence (P08637 17-208 F176V limits assumed): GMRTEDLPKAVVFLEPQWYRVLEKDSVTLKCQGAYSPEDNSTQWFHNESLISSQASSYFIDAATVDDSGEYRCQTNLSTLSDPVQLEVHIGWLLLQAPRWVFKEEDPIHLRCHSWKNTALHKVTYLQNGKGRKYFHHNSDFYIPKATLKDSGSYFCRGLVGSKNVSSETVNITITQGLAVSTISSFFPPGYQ
T4 sequence (P12314 16-288 limits assumed): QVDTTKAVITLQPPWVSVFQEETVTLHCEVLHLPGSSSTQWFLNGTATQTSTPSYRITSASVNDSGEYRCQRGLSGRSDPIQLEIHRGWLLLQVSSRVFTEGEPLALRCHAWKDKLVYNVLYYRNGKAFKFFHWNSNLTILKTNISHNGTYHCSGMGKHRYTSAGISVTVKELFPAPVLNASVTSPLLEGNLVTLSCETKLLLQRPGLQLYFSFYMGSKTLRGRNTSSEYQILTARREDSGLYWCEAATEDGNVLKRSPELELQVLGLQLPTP
T9 sequence (O75015 17-200 N65S limits assumed): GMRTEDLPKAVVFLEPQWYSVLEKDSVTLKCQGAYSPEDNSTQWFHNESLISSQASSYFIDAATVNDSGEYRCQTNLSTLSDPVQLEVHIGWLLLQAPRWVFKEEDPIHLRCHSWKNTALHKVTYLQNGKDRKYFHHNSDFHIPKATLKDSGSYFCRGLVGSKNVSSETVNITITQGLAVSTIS
T8 sequence (P08637 17-208 limits assumed): as the sequence (P08637 17-208 F176V limits assumed) above, with V160F counted along it

| Binder | Kd [1] [nM] | Kd [2] [nM] | Kd [3] [nM] | Kd [4] [nM] | Kd [5] [nM] | koff [5] [s⁻¹] | kon [5] [M⁻¹ s⁻¹] | Kd [6] [nM] | Kd [7] [nM] | Fold change from IFX [8] [fold] | Kd [9] [nM] | Kd [10] [nM] | Fold change from wt [11] [fold] | EC50 (read off the curve) [12] [µg/mL] | IC50 (read off the curve) [13] [µg/mL] | fold increase in affinity [14] [fold] |
| --- | --- | --- | --- | --- | --- | --- | --- | --- | --- | --- | --- | --- | --- | --- | --- | --- |
| B1 | 2.92 | 670 | 3140 | 1000 | 0.00413 | 3.45e-05 | 8.37e+06 | 184 | – | – | – | – | – | – | – | – |
| B2 | 2.8 | 780 | 1210 | 5.61 | 0.0033 | 2.04e-05 | 6.22e+06 | 280 | 1600 | 75.8 | 2410 | 1650 | 178 | ~0.4 | ~0.007 | – |
| B3 | 2.93 | 1870 | 1130 | 6.24 | – | – | 5.8e+06 | 33.5 | 1450 | 68.1 | 150 | 400 | 160 | ~0.6 | ~0.007 | 5.5 |
| B4 | – | – | – | – | – | – | – | – | – | – | – | – | – | ~0.5 | – | – |
